Assay results published in article doi:10.1101/2025.11.06.686519 (bioRxiv, 2025).

B1: Fab Cb (Fab 73.1) (Fab, V domains shown)
VH: QVQLQQSGAELVRPGTSVKISCKASGYTFSNYWLGWLKQRPGHGLEWIGDIYPGGGYTNYNEKLKGKATLTADTSSSTAYMQLSSLTSEDSAVYFCARPRYGDYWYFDVWGAGTTVTVSS
VL: VHSALMAASPGEKVTITCSVSSSISSSNLHWYQQKSETSPKPWIYGTSNLASGVPVRFSGSGSGTSYSLTISSMEAEDAATYYCQQWSSYPLTFGAGTKLELK
B2: mAb 73.1 (clone Cb), recombinant monoclonal antibody (antibody, V domains shown)
VH: B1 VH
VL: B1 VL
notes: copies: 2 + 2

Key:
[1] = biological target: single site-biotinylated PR8 HA (as loaded on streptavidin biosensors for BLI) (influenza virus strain A/Puerto Rico/8/1934 (PR8)) (UniProt P03452); experiment: BLI; Octet RED96; […]; association 300 s, dissociation 600 s; global fit 1:1
Chain of single site-biotinylated PR8 HA (as loaded on streptavidin biosensors for BLI) (influenza virus strain A/Puerto Rico/8/1934 (PR8)) (P03452 18-338): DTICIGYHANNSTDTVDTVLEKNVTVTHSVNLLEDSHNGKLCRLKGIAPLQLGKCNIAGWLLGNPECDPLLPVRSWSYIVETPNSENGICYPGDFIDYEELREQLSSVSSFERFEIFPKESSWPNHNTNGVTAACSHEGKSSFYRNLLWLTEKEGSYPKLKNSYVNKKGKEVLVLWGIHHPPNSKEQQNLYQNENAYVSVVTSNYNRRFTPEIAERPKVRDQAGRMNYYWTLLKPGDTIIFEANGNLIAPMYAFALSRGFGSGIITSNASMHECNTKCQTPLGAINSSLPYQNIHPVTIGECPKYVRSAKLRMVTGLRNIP

[2] = biological target: PR8 HA as used for cryo-EM with Fabs (Influenza A virus A/Puerto Rico/8/1934 …, UniProt P03452); experiment: cryo-EM structure; details: both partners purified
Chain of PR8 HA as used for cryo-EM with Fabs (P03452 18-338): as above

[3] = biological target: recombinant hemagglutinin (HA) from influenza virus strain A/Puerto Rico/8/1934 (PR8), cysteine-crosslinked, … (Influenza A virus A/Puerto Rico/8/1934 …, UniProt P03452); experiment: ELISA; details: both partners purified
Chain of recombinant hemagglutinin (HA) from influenza virus strain A/Puerto Rico/8/1934 (PR8), cysteine-crosslinked, … (P03452 18-338): as above

Row | Binder | Kd [1] | binding result [2] | binding result [3]
1 | B1 | 30 nM | binds | –
2 | B2 | – | – | binds
